Laboratory results taken from US20150344570A1 (published 2015).

Experiments:
[1] = molecular target: T1, FcγRIIa R (FcγRIIa allotype with Arg at position 131), extracellular domain with C-terminal His tag (human, UniProt P12318 34-217); experiment: SPR (Biacore), antibody captured, FcγR analyte; vs GpH7-A5/GpH7-B3/GpL16-k0 = 100
T1 construct: extracellular domain; made in FreeStyle293 cells; analyte in the Biacore assay; also called FcγRIIa type R; 2aR
T1 sequence (looked up): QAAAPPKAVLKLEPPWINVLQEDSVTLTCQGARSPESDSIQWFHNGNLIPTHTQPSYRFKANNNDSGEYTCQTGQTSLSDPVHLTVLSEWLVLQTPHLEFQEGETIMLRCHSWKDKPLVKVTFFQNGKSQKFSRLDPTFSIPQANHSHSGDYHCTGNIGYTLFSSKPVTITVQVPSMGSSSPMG

[2] = molecular target: T2, FcγRIIb, extracellular domain with C-terminal His tag (human, UniProt P31994 43-217); experiment: as above
T2 construct: extracellular domain; made in FreeStyle293 cells; analyte in the Biacore assay; also called 2b; FcgRIIb
T2 sequence (looked up): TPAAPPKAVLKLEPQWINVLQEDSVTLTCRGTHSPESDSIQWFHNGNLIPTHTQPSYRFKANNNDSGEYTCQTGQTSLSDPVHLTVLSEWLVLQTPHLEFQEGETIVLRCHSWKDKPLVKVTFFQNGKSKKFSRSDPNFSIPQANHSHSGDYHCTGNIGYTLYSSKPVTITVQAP

[3] = molecular target: T1, FcγRIIa R (FcγRIIa allotype with Arg at …); experiment: SPR (Biacore); He/Con_2aR divided by He/Con_2b, binding to FcγRIIa R against binding to FcγRIIb
Description: (§1) The heterodimerized antibodies He Abs in which one of the H chains was introduced with an alteration were assayed for their binding activities to each activating FcγR and inhibitory FcγR according to the method described in Example 4. […] The activating FcγRs in FIGS. 26, 27, 28, and 29 are FcγRIa, FcγRIIa (R), FcγRIIa (H), and FcγRIIIa, respectively.
(§2) Analysis of interaction between objective antibody and the FcγR was carried out using Biacore T100 (GE Healthcare). HBS-EP+ (GE Healthcare) was used as the running buffer, and the measurement temperature was set to 25° C. Chips produced by immobilizing the antigen peptide by the amine coupling method to a Series S Sencor Chip CM5 (GE Healthcare), or alternatively, chips produced by allowing preliminarily biotinylated antigen peptides to interact with and immobilize onto a Series S Sensor Chip SA (certified) (GE Healthcare) were used. Antibodies of interest were captured onto an antigen peptide-immobilized chip, and allowed to interact to each FcγR diluted with running buffer. To regenerate and repeatedly use the chip, the antibodies captured on the chip were washed off by reacting 10 mM glycine-HCl, pH 1.5.

[4] = molecular target: T3, FcγRIIIa extracellular domain with C-terminal His tag (human, UniProt P08637 17-208); experiment: SPR (Biacore), antibody captured, FcγR as analyte; binding activity relative to control heterodimerized antibody
T3 construct: extracellular domain; also called FcgRIIIa; 3a; not shown: His tag attached to the C terminus
T3 sequence (P08637 17-208): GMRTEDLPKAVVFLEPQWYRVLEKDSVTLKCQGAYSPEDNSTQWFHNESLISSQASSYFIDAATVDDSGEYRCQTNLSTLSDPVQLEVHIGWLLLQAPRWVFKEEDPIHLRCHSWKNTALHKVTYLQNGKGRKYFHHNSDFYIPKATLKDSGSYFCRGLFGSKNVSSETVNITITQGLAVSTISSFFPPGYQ
Description: as §1, §2

[5] = molecular target: T4, FcγRIIb extracellular domain with C-terminal His tag (human, UniProt P31994 43-217); experiment: as above
T4 construct: extracellular domain; Soluble receptor expressed in FreeStyle293 cells and used as analyte in Biacore; also called FcgRIIb; 2b; not shown: His tag attached to the C terminus
T4 sequence (looked up): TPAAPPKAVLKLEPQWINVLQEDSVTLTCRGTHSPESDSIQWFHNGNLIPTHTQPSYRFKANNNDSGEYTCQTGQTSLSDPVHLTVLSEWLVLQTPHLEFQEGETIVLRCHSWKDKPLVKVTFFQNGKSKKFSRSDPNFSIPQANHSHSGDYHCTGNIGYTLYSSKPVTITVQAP
Description: as §1, §2

[6] = molecular target: T3, FcγRIIIa extracellular domain with …; experiment: SPR (Biacore); He/Con_3a divided by He/Con_2b (FcγRIIIa over FcγRIIb)
Description: as §1, §2

B1: GpH7-A5/GpH7-B3 variant L234_16H/GpL16-k0 (antibody, human IgG1, kappa)
heavy 1: not shown
heavy 2: not shown
light: DIVMTQSPLSLPVTPGEPASISCQASESLVHSNRNTYLHWYLQKPGQSPQLLIYKVSNRFSGVPDRFSGSGSGTDFTLKISRVEAEDVGVYYCSQNTHVPPTFGQGTKVEIERTVAAPSVFIFPPSDEQLKSGTASVVCLLNNFYPREAKVQWKVDNALQSGNSQESVTEQDSKDSTYSLSSTLTLSKADYEKHKVYACEVTHQGLSSPVTKSFNRGEC
notes: heterodimerized IgG1, mutation in one H chain only; also called He Ab
- He/Con_2aR [1]: 71.8 relative (HeCon Ab = 100)
- He/Con_2b [2]: 59.4 relative (HeCon Ab = 100)
- He_2aR/2b (IIaR/IIb) [3]: 1.21 ratio

B2: GpH7-A5/GpH7-B3 variant D270_03V/GpL16-k0 (antibody, human IgG1, kappa)
heavy 1: not shown
heavy 2: not shown
light: DIVMTQSPLSLPVTPGEPASISCQASESLVHSNRNTYLHWYLQKPGQSPQLLIYKVSNRFSGVPDRFSGSGSGTDFTLKISRVEAEDVGVYYCSQNTHVPPTFGQGTKVEIERTVAAPSVFIFPPSDEQLKSGTASVVCLLNNFYPREAKVQWKVDNALQSGNSQESVTEQDSKDSTYSLSSTLTLSKADYEKHKVYACEVTHQGLSSPVTKSFNRGEC
notes: Heterodimerized anti-glypican-3 IgG1 with the alteration in only one H chain; also called He Ab
- He/Con_3a [4]: 60.3 % of GpH7-A5/GpH7-B3/GpL16-k0 (=100)
- He/Con_2b [5]: 39.5 % of GpH7-A5/GpH7-B3/GpL16-k0 (=100)
- He_3a/2b [6]: 1.52 ratio

B3: GpH7-A5/GpH7-B3 variant L234_14T/GpL16-k0 (antibody, human IgG1, kappa)
heavy 1: not shown
heavy 2: not shown
light: DIVMTQSPLSLPVTPGEPASISCQASESLVHSNRNTYLHWYLQKPGQSPQLLIYKVSNRFSGVPDRFSGSGSGTDFTLKISRVEAEDVGVYYCSQNTHVPPTFGQGTKVEIERTVAAPSVFIFPPSDEQLKSGTASVVCLLNNFYPREAKVQWKVDNALQSGNSQESVTEQDSKDSTYSLSSTLTLSKADYEKHKVYACEVTHQGLSSPVTKSFNRGEC
notes: as for B1
- He/Con_2aR [1]: 77.5 relative (HeCon Ab = 100)
- He/Con_2b [2]: 62.5 relative (HeCon Ab = 100)
- He_2aR/2b (IIaR/IIb) [3]: 1.24 ratio

B4: GpH7-A5/GpH7-B3 variant D270_06M/GpL16-k0 (antibody, human IgG1, kappa)
heavy 1: not shown
heavy 2: not shown
light: DIVMTQSPLSLPVTPGEPASISCQASESLVHSNRNTYLHWYLQKPGQSPQLLIYKVSNRFSGVPDRFSGSGSGTDFTLKISRVEAEDVGVYYCSQNTHVPPTFGQGTKVEIERTVAAPSVFIFPPSDEQLKSGTASVVCLLNNFYPREAKVQWKVDNALQSGNSQESVTEQDSKDSTYSLSSTLTLSKADYEKHKVYACEVTHQGLSSPVTKSFNRGEC
notes: as for B2
- He/Con_3a [4]: 66.3 % of GpH7-A5/GpH7-B3/GpL16-k0 (=100)
- He/Con_2b [5]: 48.2 % of GpH7-A5/GpH7-B3/GpL16-k0 (=100)
- He_3a/2b [6]: 1.38 ratio

B5: GpH7-A5/GpH7-B3 variant L235_13S/GpL16-k0 (antibody, human IgG1, kappa)
heavy 1: not shown
heavy 2: not shown
light: DIVMTQSPLSLPVTPGEPASISCQASESLVHSNRNTYLHWYLQKPGQSPQLLIYKVSNRFSGVPDRFSGSGSGTDFTLKISRVEAEDVGVYYCSQNTHVPPTFGQGTKVEIERTVAAPSVFIFPPSDEQLKSGTASVVCLLNNFYPREAKVQWKVDNALQSGNSQESVTEQDSKDSTYSLSSTLTLSKADYEKHKVYACEVTHQGLSSPVTKSFNRGEC
notes: as for B1
- He/Con_2aR [1]: 65.3 relative (HeCon Ab = 100)
- He/Con_2b [2]: 48.2 relative (HeCon Ab = 100)
- He_2aR/2b (IIaR/IIb) [3]: 1.36 ratio

B6: GpH7-A5/GpH7-B3 variant L234_19Q/GpL16-k0 (antibody, human IgG1, kappa)
heavy 1: not shown
heavy 2: not shown
light: DIVMTQSPLSLPVTPGEPASISCQASESLVHSNRNTYLHWYLQKPGQSPQLLIYKVSNRFSGVPDRFSGSGSGTDFTLKISRVEAEDVGVYYCSQNTHVPPTFGQGTKVEIERTVAAPSVFIFPPSDEQLKSGTASVVCLLNNFYPREAKVQWKVDNALQSGNSQESVTEQDSKDSTYSLSSTLTLSKADYEKHKVYACEVTHQGLSSPVTKSFNRGEC
notes: as for B1
- He/Con_2aR [1]: 75.1 relative (HeCon Ab = 100)
- He/Con_2b [2]: 60.3 relative (HeCon Ab = 100)
- He_2aR/2b (IIaR/IIb) [3]: 1.24 ratio

B7: GpH7-A5/GpH7-B3 variant L235_16H/GpL16-k0 (antibody, human IgG1, kappa)
heavy 1: not shown
heavy 2: not shown
light: DIVMTQSPLSLPVTPGEPASISCQASESLVHSNRNTYLHWYLQKPGQSPQLLIYKVSNRFSGVPDRFSGSGSGTDFTLKISRVEAEDVGVYYCSQNTHVPPTFGQGTKVEIERTVAAPSVFIFPPSDEQLKSGTASVVCLLNNFYPREAKVQWKVDNALQSGNSQESVTEQDSKDSTYSLSSTLTLSKADYEKHKVYACEVTHQGLSSPVTKSFNRGEC
notes: as for B1
- He/Con_2aR [1]: 94.8 relative (HeCon Ab = 100)
- He/Con_2b [2]: 76.9 relative (HeCon Ab = 100)
- He_2aR/2b (IIaR/IIb) [3]: 1.23 ratio

B8: GpH7-A5/GpH7-B3 variant L235_14T/GpL16-k0 (antibody, human IgG1, kappa)
heavy 1: not shown
heavy 2: not shown
light: DIVMTQSPLSLPVTPGEPASISCQASESLVHSNRNTYLHWYLQKPGQSPQLLIYKVSNRFSGVPDRFSGSGSGTDFTLKISRVEAEDVGVYYCSQNTHVPPTFGQGTKVEIERTVAAPSVFIFPPSDEQLKSGTASVVCLLNNFYPREAKVQWKVDNALQSGNSQESVTEQDSKDSTYSLSSTLTLSKADYEKHKVYACEVTHQGLSSPVTKSFNRGEC
notes: as for B1
- He/Con_2aR [1]: 60.7 relative (HeCon Ab = 100)
- He/Con_2b [2]: 46.8 relative (HeCon Ab = 100)
- He_2aR/2b (IIaR/IIb) [3]: 1.3 ratio
